Results as given in the nanobody polyreactivity screen of Harvey et al. (2022).

Experiment: yeast display, Sf9 membrane polyspecificity reagent, FACS + sequencing; frameworks hold sequencing errors
Summary of the method: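 Using colony PCR, genes from sorted yeast display clones were amplified, then sequenced on MiSeq at 2 × 250 and filtered by CDR length. The clones had been stained with 10% biotinylated, detergent-solubilized Sf9 membrane reagent for 1 hour at 4 °C and sorted by FACS into low and high (top ~1%) gates on anti-HA and streptavidin fluorescence. Polyreactivity labels come from the gate of origin.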

Sequence | polyreactivity (PSR sort gate)
QVQLVESGGGLVQAGGSLRLSCAASGSTFYTNAMGWYRQAPGKERELVAAINRSGGRSYYADSVKGRFTISRDNAKNTVYLQMNSLKQEDTAVYYCAARYPLRISTDTARDYYWGQGTQVTVSS | low polyreactivity
QVQLVESGGGLVQAGGSLRLSCAASGRTLKKNAMGWYRQAPGKEMELVAAITSSTGITYYADSVKGRFTISRDNAKNTVYLQMNSLKPEDTAVYYCAADPPRTLSLIFYSREWSYDYWGQGTQVTVSS | low polyreactivity
QDQLVESGAGLVQAGGSLRLSCAASGRIFDRYAMGWYRQAPGKEREMVAAITTSSGGSTYYADSVKGRFTISRDNAKNTVYLQMHSLKPEDTAVYYCAADRRYNVIGEFGYWGQGTQVTVSS | low polyreactivity
QVQLVESGGGLVQAGGSLRLSCAASGSIFRYYDMGWYRQAPGKERELVAAISWSGGTTYYADSVKGRFTISRDNAKNTVYLQMNSLKPEDTAVYYCNRVRYPSYDYWGQGTQVTVSS | high polyreactivity
QVHLVESGGGLVQAGGSLRLRCAASGIIFKSYAMGWYRQAPGKERELVAAITKRGGSTYYADSVKGRFTISRDNAKNTVYLQMNSLKPEDTAVYDCAADDGVGNTDDYWGQGTQVTVSS | high polyreactivity
QVQLVESAGGLVQAGGSLRLSCASSGSTFQKYAMGWYRQAPGKESELVARISSGGSTTNADYVKGRFTISRDNAKYTVYIQMTSLKPEDTAVYYCAARLVVAQPHQWVVYLNTYYYWGQGTQVTVSS | high polyreactivity
QVQLVESGGGLVQAGGSLRLSCAASGSTVGVNAMGWYRQAPGKERELVAALSNGDNTYYADSVKGRFTISRDHAKNTVYLQMNSLKPEDTAVYYCAADQYWSWIYYPVVESDYWGQGTQVTVSS | low polyreactivity
QVQLVESGGGLVQAGGSLRLSCAASGSTFNYNAMGWYRQAPGKERELVAAINRSGGRTYYADSVKGRFTISRDNAKNTVYLKMNSLKPEDTAVYYCAKRYYKSLNRDEFDSWGQGTQVTVSS | high polyreactivity
QGKLVESGGGLVQAGGSLRLSCAASGLTFGSNTMGGYRQAPGKERELVAAITSNGGSTYYADSVKGRFTISRDNAKNTVYVQMNSLKPEDTAVYYCAARSYDGYYRYYYWGQGTQVTVSS | low polyreactivity
QVQLVQSGGGLVQAGGSLRLSCAASGRTFYYAMGWYRQAPGKERELVARITRRGGSTYYADSVKGRFTISRDNAKNTVYLQMNSLKPEDTAVYYCNARWHRYLLATYGYWVQGTQVTVSS | high polyreactivity
QVQLVESGGGLVQAGGSLRLSCAASGIIFAYYAMGWYRQAPGKERELVASITNTGSTYYADSVKGRFTISRDNAKNTVYLQMNSLKPEDTAVYFCNAVLSSNTKWRYPGDYLGQGTQVTVSS | low polyreactivity
QVQLVESGGGLVQAGGSLRLSCAASGSTFRVYAMGCYRQAPGKERELVAAISGSGGSTYYADSVKGRFTISRDNAKNTVYLQMNSLKPEDTAVYYCAARSWYTEYYWGQGTQVTVSS | high polyreactivity
QVQLVESGGGLVQAGGSLRLSCAASGSIVAWYGMGWYRQAPGKERELVAAISTAGSTNYADSVKGRFTISRDNAKNTVYLQMYSLKPEDTAVHYCAKKSSWYYPERFDYWGQGTQVTVSS | low polyreactivity
QVQLVESGGGLVQAGGSLRLSCGASGLTFVWYGMGWYRQAPGKERELVAAITRGGSTYYADSVKGRFTISRDNAKNTVYLQMNSVKPEDTAVYYCAARYKYTGYDYWGQGTQVTVSS | high polyreactivity
QVQLVESGGGLVQAGGSLRLSCAASGSTLAVYAMGWYRQAPGKERELDAAISYSGGGTYYADSVKGRFTISRDNAKNTVYLQMNSLKPEDTAVYYCATDLYYEYYTWDYYWGQGTQVTVSS | low polyreactivity
QVQLVESGGGLFQAGGSLRLSCAPSGFTFSNYAMGWYRQAPGKEREFVAAISGTGGSTYYADSVKGRFTISRDNAKNTVYLQMNSLKPEDTEVYYCYFYFRRQYEHEYWGQGTQVTVSS | high polyreactivity

Sequence | polyreactivity (PSR sort gate)
QVQLVESGGGLVQAGGSLRLICAASGFTFSKYGMVWYRQAPGKERELVAAISGSGGNTYYADSVKGRFTISRDNAKNTVYLLINSLKPEDTAVYYCNATWELLSYYYLFWGYDYWGQGTQVTVSS | low polyreactivity
QVQLVESGGGLFQAGGSLRLSCAASGSTFDTNVMGWYRQAPGKERELVAAIDVSGGSTYYADSVKGRFTISRDNAKNTVYLQMNSLKPEDTAVYYCAAEGTTWYYDMDYWGQGTQVTVSS | low polyreactivity
QVQLVESGGGLVQAGGSLRLSCAASGFIFRVNAMGWYRQATGKERELVAAISASGGTTYYADSVKGRFTISRDIAKNTVYLQMNSLKPEDTAVYYCNAPSRTRYDYWGQGTQVTVSS | low polyreactivity
QVQLVESGGGLVQAGGSLRLSCAASGRIFRGYAMGWYRQAPGKERELVAAISGSGGSTYYADSVKGRFTISRDNAKNTVYLQMNSLKPEDTAVYYCNAGWYFYGETTDDYWGQGTQVTVSS | low polyreactivity
QVQLVESGGGLVQAGGSLRLSCAASGFTFGLYAMGWYRQAPGKERELVASITWSGGSTYYADSVKGRFTISRDNAKNTVYLQMNSLKPEDTAVYDCAKRLYLITWAASSADDYWGQGTQVTVSS | low polyreactivity
QVQLVESGGGLVQAGGSLRLSCAASGRIFYQNAMGWYRQAPGKERELVAAISSSGDSTYADSVKGRFTISRDNAKNTVYLQMNSLKPEDTAVYYCAAGVGWEFDYWRQGTQVTVSS | low polyreactivity
QDQLVESGGVLVQAGGSLRLSCADSGFSFANYVMGWYRQAPGKERELFAAITTPGGSTSYADSVKGRFTISRDNAKTNVYLQMPSLKPEDTAVYFCKKTTYYPSDYDYWGQGTQVTVSS | low polyreactivity
QVQLVESGGGLVQAGGSLRLSCAASGGNFEWNAMGWYRQAPGKERELVAAISNTGGSTSYADSVKGRFTISRDNAKNTVYLQMNSLKTEDTAVYYCNTVNRYEFGYWGQGSQVTVSS | high polyreactivity
QVQLVESGGGLVQAGGSLRLSCAASGRIFTGYAMGWYRQAPGKEREFVAAITGRGGSTYYADSVKGRFTISRDNAKNTVYLQMNSLKPEDTAVYYCNALPRSPWYYRGDYWGQGTQVTVSS | high polyreactivity
QVQLVESGGGLVQAGGSLRLSCAASGSTFPYYAMGWYRQAPGKERELVAAITSSTGRTYYADSVKGRFTISRDNAKNSVYLQMNSLKPEDSAVYYCNAEVYSDPYNDHDYWGQGTQVTVSS | low polyreactivity
QVQLVESGGGLVQAGGSLRLSCAASGYTFRLYAMGWYRQAPVKERELVAAINTSGGRTYYADSVKGRFTISRDNAKNTVYLQMNSLKPEDTAVYYCATDWYWKRADIRPGDYWGQGTQVTVSS | low polyreactivity
QDQLVESGGGLVQAGGSLRLICAASGSTLPRYTMGWYRQAPGKERELVAAISFSGSSTYYADSVKGRFTISRDNAKNTVYLQMNSLKPEDTAVYYCRYGYNYWGQGTQVTVSS | high polyreactivity
QVQLVESGGGLVQAGGSLRLSCAASGRTFFWYVMGWYRKAPGKERELVATISYGGITYYADSVKGRFTISRDNAKNTVYLQMNSLKPEDTALYYCAAKPSRSLYYYWGQGTQVTVSS | high polyreactivity
QVQLVESGGGLVQAGGSLRLSCAASGSIILYYAIGWYRQAPGIERELVAGIRRGGRTNYADSVKGRFTISRDNAKNTVYLQMNSLKPEDTAVYYCAKGGYWGQGSQVTVSS | high polyreactivity
QVQLVESGGGLVQAGGSLRLSCAASGRTFGRYAMGWYRQAPGKERELVAAINKNGGSTFYADSVKGRFTISRDNAKNTVYLQMNSLKPEDTAVYYCNRTAYVRGYPPWGYDYWGQGTQVTVSS | low polyreactivity
QVQLVESGGGLVQAGGSLRLSCAASGSTFWPYAMGWYRQAPVKERELVADISRRCGSTYYADSVKGRFTISRDNAKNTVYLQMNSLKPEDTAVYYCAKYPSAYVDSDVTYDMAYWGQGTQVTVSS | low polyreactivity
